Experimental data taken from paper PMC6128652, “Structure of the Cladosporium fulvum Avr4 effector in complex with (GlcNAc)6 reveals the ligand-binding mechanism and uncouples its intrinsic function from recognition by the Cf-4 resistance protein” (PLoS Pathogens, 2018).
Entries after “also recorded” stand apart in the source; their conditions may differ.

How the values were obtained:
[1] = Isothermal titration calorimetry (ITC) of CfAvr4 variants with chitin hexasaccharide; type: binding; conditions: ITC; for effect of the mutation on binding to (GlcNAc)6: compared with WT-CfAvr4; for increase in the Kd relative to WT-CfAvr4: (GlcNAc)6
Procedure: A stock solution of the monomer of N-acetylglucosamine was prepared by dissolving the dry powder in a buffer containing 10 mM Bis-Tris, pH 6.5, 100 mM NaCl to a concentration of 0.100 g/L using analytic techniques. Standard solution of 0, 0.010, 0.025, 0.050, 0.075 g/L were prepared by serial dilutions. Using glass test tubes and pipets, 100 μL of each standard was mixed with 300μL of concentrated sulfuric acid and vortexed for 10 sec to mix. Solutions were incubated at RT for 10 min and then placed on ice to stop the reaction. […] Analytically prepared solution of the di- and tri-saccharide scaled linearly to the calibration curve. To determine the concentration of the chitin hexasaccharide solutions used in ITC, the solutions were diluted into the dynamic range of the calibration curve (S12 Fig) and subjected to the above procedure.
All ITC experiments were performed on a TA Instruments low volume NanoITC with a 186uL reaction cell and a reference cell filled with degassed Milli-Q grade water. Reactions were run in a buffer containing 10mM Bis-Tris, pH 6.5, 100 mM NaCl. The reservoir solution was filled with protein solution and continuously stirred while Chitin hexasaccharide solutions titrated in 2.5μL aliquots for 19 injections, with an initial 1μL injection, for a total injection volume of 48.5μL. The carbohydrate solutions were made by dissolving the dry powder in buffer to a concentration of 20mM (confirmed using methods described above) and then diluted to the working concentration using the final buffer exchange flow through to match the buffers as closely as possible. The integrated heats, after correction for the heat of dilution were analyzed using the NanoAnalyze software from […]. An individual binding site model was used to fit the binding isotherm. All experiments were replicated a minimum of three times.

[2] = tested on: germlings of Trichoderma viride; experiment: In vitro protection assay of T. viride germlings against chitinases; type: cell-based; conditions: 5 μM protein with chitinases and β-1,3-glucanases, 6–8 h
Procedure: The ability of the WT-CfAvr4 and of ChBD mutants to protect against chitinases was evaluated in in vitro protection assays conducted as described before. Briefly, spores of T. viride (3∙10^3) were pre-germinated overnight at room temperature in 100 μl of half-strength PDB medium in 96 well plates. The following day, 5 μM of WT-CfAvr4 or ChBD mutants were mixed with 7.5 units of Zymolyase (Zymo Research cat. no. E1004) and 0.2 units of bacterial chitinases (Sigma-Aldrich cat. no. C6137) and the mixture was added to the microtitre plate wells containing the pre-germinated spores in a final volume of 150 μl. Plates were incubated at 25°C for 6–8 h before evaluating under the microscope fungal growth and the ability of the proteins to provide protection against chitinases. Zymolase has β-1,3 glucanase and β-1,3-glucan laminaripentaohydrolase activity and is added to the mixture in order to remove the surface glucans from the fungal cell wall and thus expose the underlying chitin layer.

[3] = tested on: Cf-4 immune receptor; experiment: Pure protein infiltrations into tomato leaves of cv Purdue 135 (+ Cf-4), hypersensitive response; type: in vivo; conditions: 5 dpi
Text: Tomato seeds were obtained from the Tomato Genetic Resource Center (TGRC) at UC Davis. WT-CfAvr4 and mutants thereof with single point mutations at selected amino acids were produced and purified from E. coli Rosetta-gami B cells as description above. […]

[4] = tested on: Cf-4; experiment: Agrobacterium tumefaciens transient transformation assay (ATTA): co-expression with Cf-4 in Nicotiana benthamiana leaves; type: in vivo; conditions: N. benthamiana, three cell density ratios 0.5:1, 1:1, 2:1
Procedure: The Agrobacterium tumefaciens transient transformation assay (ATTA) was used for the transient co-expression into leaves of Nicotiana benthamiana of Cf-4 with the WT-CfAvr4 and the mutants thereof tested in this study. Briefly, N. benthamiana plants were grown in a growth chamber with 16 h of artificial light and 70% humidity, at 25°C for 4 weeks. The true mature form of the WT-CfAvr4 (i.e. between Lys30-Gln115) and of the mutants thereof were singly cloned into the binary expression vector pICH47742 downstream of the PR1A signal sequence of Nicotiana tabacum for targeted secretion into the apoplast, and under the control of CaMV 35S promoter and NOS terminator. The tomato Cf-4 was cloned into pMOG800 as descripted before. Binary vector plasmids were transformed into A. tumefaciens strain GV3101 by electroporation. For the ATTA assay, agrobacteria transformed with pMOG800:Cf-4 was grown in 10mL LB-mannitol medium (LB medium with 10 g/L mannitol) amended with 50 μg/mL kanamycin and 25 μg/mL rifampicin, whereas agrobacteria transformed with pICH47742:WT-CfAvr4 or pICH4774:CfAvr4-mutants were grown in LB-mannitol amended with 100 μg/mL carbenicillin and 25 μg/mL rifampicin. All cultures were incubated at 28°C for 2 days, after which period they were pelleted at 2800g for 15 min, re-suspended in MMAi medium (5 g/L Murashige and Skoog basal salts, 20 g/L sucrose, 10 mM MES, and […]) at an optical cell density (A600) of 2.0, and further incubated for 2–4 h at room temperature. Agroinfiltrations were performed by mixing agrobacteria containing pMOG800:Cf-4 with agrobacteria containing pICH47742_WT-CfAvr4 or pICH47742:CfAvr4-mutants at three different ratios of optical cell densities, i.e. A6000.5:A6001.0, A6000.5:A6000.5, and A6000.5:A6000.25 of. The mixture of agrobacteria was infiltrated into the leaves of N. benthamiana plants using a 1 mL syringe and the induction of an HR in the infiltrated leaf sectors was evaluated at 5 days post-infiltrations. Control infiltrations were made using only the pMOG800:Cf-4 transformed agrobacteria and the agrobacteria containing pICH47742:CfAvr4 or the mutants thereof without mixing the two cultures, at cell densities of A6000.25, A6000.5, and A6001.0.

[5] = tested on: subtilisin; experiment: Subtilisin treatment (resistance against proteolytic degradation); type: in vitro ADME; design: key to Stability (Subtilisin assay): S: stable; PU: partially unstable; conditions: for Stability (Subtilisin assay): 500 ng/μL subtilisin, 30 min, room temperature; for susceptibility to proteolytic degradation by subtilisin: 500 ng/μl subtilisin, band of mature CfAvr4 on SDS-PAGE
Procedure: The WT-CfAvr4 and selected mutants thereof were exposed to the non-specific protease subtilisin in order to determine their resistance against proteolytic degradation. Treatments with subtilisin were made as previously described with minor modifications. Briefly, 40 μM of the E. coli-produced CfAvr4 and the selected CfAvr4 mutants were mixed with 10 mM of calcium chloride and 500 ng/μL of subtilisin (Sigma-Aldrich) in a total volume of 15 μL. Samples were incubated for 30 min at room temperature, after which period they were denatured by mixing with 10 mM PMSF and SDS-PAGE loading buffer, and heating at 98°C for 10 min. Digestion products were visualized on an SDS-PAGE after staining with Coomassie blue.

Molecule	effect of the mutation on binding to (GlcNAc)6 [1]	protection of fungal hyphae against chitinases, fungal growth [2]	Cf-4-mediated HR after protein infiltration ([3]; 5 μg/ml)	Cf-4-mediated HR after protein infiltration ([3]; 10 μg/ml)	Cf-4-mediated HR after protein infiltration ([3]; both 5 μg/ml and 10 μg/ml)	HR on transient co-expression with Cf-4 [4]	Stability (Subtilisin assay) [5]	susceptibility to proteolytic degradation by subtilisin [5]	increase in the Kd relative to WT-CfAvr4 [1]
D102A (protein, left off: 6x His (two), N-terminal, state not stated) KAPKTQPYNPCKPQEVIDTKCMGPKDCLYPNPDSCTTYIQCVPLDEVGNAKPVVKPCPKGLQWNDNVGKKWCAYPNLSTCPVKTPQ	abolished all detectable binding	essentially failed to protect the fungal hyphae against chitinases; also recorded: fail to protect the fungal hyphae	weak HR response	elicited an HR	only partially trigger an HR	strong and similar in intensity HR	PU	vulnerable to proteolytic degradation; also recorded: decreased intensity of this band	
N93A (protein, left off: 6x His (two), N-terminal, state not stated) KAPKTQPYNPCKPQEVIDTKCMGPKDCLYPNPDSCTTYIQCVPLDEVGNAKPVVKPCPKGLQWADNVGKKWCDYPNLSTCPVKTPQ					failed to elicit an HR; also recorded: do not; also recorded: did not elicit an HR	strong and similar in intensity HR	PU	more susceptible to degradation; also recorded: almost complete disappearance of the band	six
Y67F (protein, left off: 6x His (two), N-terminal, state not stated) KAPKTQPYNPCKPQEVIDTKCMGPKDCLYPNPDSCTTFIQCVPLDEVGNAKPVVKPCPKGLQWNDNVGKKWCDYPNLSTCPVKTPQ	did not affect the Kd substantially				strong and equal in intensity HR; also recorded: strong and equally in intensity necrosis	strong and similar in intensity HR			
D94A (protein, left off: 6x His (two), N-terminal, state not stated) KAPKTQPYNPCKPQEVIDTKCMGPKDCLYPNPDSCTTYIQCVPLDEVGNAKPVVKPCPKGLQWNANVGKKWCDYPNLSTCPVKTPQ					failed to elicit an HR; also recorded: do not; also recorded: did not elicit an HR	strong and similar in intensity HR	PU	more susceptible to degradation; also recorded: almost complete disappearance of the band	five
M51A (protein, left off: 6x His (two), N-terminal, state not stated) KAPKTQPYNPCKPQEVIDTKCAGPKDCLYPNPDSCTTYIQCVPLDEVGNAKPVVKPCPKGLQWNDNVGKKWCDYPNLSTCPVKTPQ	did not affect the Kd substantially				strong and equal in intensity HR; also recorded: strong and equally in intensity necrosis	strong and similar in intensity HR			
P87A (protein, left off: 6x His (two), N-terminal, state not stated) KAPKTQPYNPCKPQEVIDTKCMGPKDCLYPNPDSCTTYIQCVPLDEVGNAKPVVKPCAKGLQWNDNVGKKWCDYPNLSTCPVKTPQ	did not affect the Kd substantially; also recorded: does not have an effect on the binding thermodynamics				strong and equal in intensity HR; also recorded: strong and equally in intensity necrosis	strong and similar in intensity HR			
Y103F (protein, left off: 6x His (two), N-terminal, state not stated) KAPKTQPYNPCKPQEVIDTKCMGPKDCLYPNPDSCTTYIQCVPLDEVGNAKPVVKPCPKGLQWNDNVGKKWCDFPNLSTCPVKTPQ	did not affect the Kd substantially				strong and equal in intensity HR; also recorded: strong and equally in intensity necrosis	strong and similar in intensity HR			
P53A (protein, left off: 6x His (two), N-terminal, state not stated) KAPKTQPYNPCKPQEVIDTKCMGAKDCLYPNPDSCTTYIQCVPLDEVGNAKPVVKPCPKGLQWNDNVGKKWCDYPNLSTCPVKTPQ	did not affect the Kd substantially				strong and equal in intensity HR; also recorded: strong and equally in intensity necrosis	strong and similar in intensity HR			
N95A (protein, left off: 6x His (two), N-terminal, state not stated) KAPKTQPYNPCKPQEVIDTKCMGPKDCLYPNPDSCTTYIQCVPLDEVGNAKPVVKPCPKGLQWNDAVGKKWCDYPNLSTCPVKTPQ					strong and equal in intensity HR; also recorded: strong and equally in intensity necrosis	strong and similar in intensity HR			three
